Common to all, as to assay: SPOT array
Test [1] concerns the target T1, Rvs167 SH3 (RV167_YEAST), P39743.
T1 chain: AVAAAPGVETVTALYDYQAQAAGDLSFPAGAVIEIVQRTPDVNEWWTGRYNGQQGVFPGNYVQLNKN

In test [2] the target is T2, Yfr024 SH3 (LSB3_YEAST), P43603.
T2 chain: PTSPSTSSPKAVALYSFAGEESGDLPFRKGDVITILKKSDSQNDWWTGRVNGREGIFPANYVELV

For test [3], the target named is T3, Boi2 SH3 (BOI2_YEAST), P39969.
T3 chain: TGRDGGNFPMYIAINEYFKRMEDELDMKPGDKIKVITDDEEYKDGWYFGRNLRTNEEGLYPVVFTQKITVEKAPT

The target of test [4] is T4, Yhr016c SH3 (YSC84_YEAST), P32793.
T4 chain: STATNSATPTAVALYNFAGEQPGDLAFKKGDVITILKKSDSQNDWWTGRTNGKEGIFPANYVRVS

In test [5] the target is T5, Boi1 SH3 (BOI1_YEAST), P38041.
T5 chain: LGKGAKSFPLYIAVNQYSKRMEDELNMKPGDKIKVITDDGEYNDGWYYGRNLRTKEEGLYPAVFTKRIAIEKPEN

B1: YDL027C 313-326 (peptide)
chain: KNLPLNPSKKLEGK
Consider B1, for which the normalised SPOT signal, Boehringer light units (BLU); mean over the file's lines of this peptide came to 67.9 in test [1]; 98.6 in test [2]; 54.4 in test [3]; 61.3 in test [4]; 309 in test [5].

B2: YIR018W 29-42 (peptide)
chain: KLPPRLPHRAAQRR
In the case of B2, the normalised SPOT signal, Boehringer light units (BLU); mean over the file's lines of this peptide in test [1] came out at 11100; in test [2], 30600; in test [3] it was 219; in test [4] it was 21700; in test [5], 20000.

B3: YJR092W 851-864 (peptide)
chain: KMTPSTPVRSISPI
In the case of B3, the normalised SPOT signal, Boehringer light units (BLU); mean over the file's lines of this peptide in test [1] is 280; in test [2], 13400; in test [3] it was 71.2; in test [4], 2960; in test [5] it was 181.

B4: YPL242C 77-90 (peptide)
chain: KLKPSLPNKLVGKY
For the molecule B4, the normalised SPOT signal, Boehringer light units (BLU); mean over the file's lines of this peptide in test [1] was 45.3; in test [2], 3700; in test [3], 34.1; in test [4], 0; in test [5], 9.1.

B5: YFR030W 641-654 (peptide)
chain: KLRPDLPVKNFVVK
Take B5: the normalised SPOT signal, Boehringer light units (BLU); mean over the file's lines of this peptide is 86.7 in test [1]; 10700 in test [2]; 15.3 in test [3]; 95.4 in test [4]; 239 in test [5].

B6: YLL015W 63-76 (peptide)
chain: KNFPTLPSKINSRH
For the molecule B6, the normalised SPOT signal, Boehringer light units (BLU); mean over the file's lines of this peptide stood at 35.2 in test [1]; 9910 in test [2]; 25.8 in test [3]; 151 in test [4]; 244 in test [5].

B7: YLR115W 535-548 (peptide)
chain: KMFPFNPAKIKKDD
Regarding B7, the normalised SPOT signal, Boehringer light units (BLU); mean over the file's lines of this peptide in test [1] came to 425; in test [2] it was 2490; in test [3], 343; in test [4] it was 404; in test [5], 112.

B8: YGL085W 143-156 (peptide)
chain: KNLPTIPIRLSGID
Turning to B8, the normalised SPOT signal, Boehringer light units (BLU); mean over the file's lines of this peptide in test [1] is 29100; in test [2] it was 10800; in test [3], 45.2; in test [4], 3830; in test [5], 2120.
